In US20110027291A1, “METHODS, SYSTEMS AND PRODUCTS FOR PREDICTING RESPONSE OF TUMOR CELLS TO A THERAPEUTIC AGENT AND TREATING A PATIENT ACCORDING TO THE PREDICTED RESPONSE” (MERRIMACK PHARMACEUTICALS, INC., priority 2008, published 2011):

Experiments:
[1] = target: T1, ErbB1 phosphorylation (pErbB1) in NCI-ADRr cells (Homo sapiens, UniProt P00533); experiment: ErbB1 phosphorylation dose response curves for ErbB ligands (ELISA); type: cell-based
T1 construct: endogenous in cells; host or cells: NCI-ADRr (ADRr) cells
Method: (§1) For stimulation of the cells, the cells are seeded in 100 μl complete media at 35,000 cells per well in 96 well tissue culture plates and incubated overnight in a humidified atmosphere of 5% CO2, 95% air and 37 degrees Celsius. Cells are then switched to serum free media: RPMI-1640 media (Gibco) supplemented with, 2 mM L-glutamine (Gibco) and units/mL Pen-Strep (Gibco). Starved cells are incubated in a humidified atmosphere of 5% CO2, 95% air and 37 degrees Celsius for 20-24 hours prior to stimulation.
(§2) Levels of protein phosphorylation in the stimulated cells are measured by ELISA. Capture antibodies against ErbB1 (R&D Systems, AF231), ErbB2 (R&D Systems, MAB1129), ErbB3 (R&D Systems, MAB3481) and AKT (Upstate, 05-591MG) are incubated in 384 well black flat-bottom polystyrene high-binding plates (Corning, Catalog #3708) overnight at room temperature. The ELISA plates are blocked with 2% bovine serum albumin (BSA) and phosphate buffered saline (PBS) for one hour then incubated with lysates diluted in 2% BSA, 0.1% Tween-20 and PBS for two hours at room temp. In between each incubation, the plates are washed three times with 0.05% Tween-20 in PBS. ELISAs for measuring phospho-ErbB1, -ErbB2 and -ErbB3 are incubated with phospho-tyrosine horseradish peroxidase (HRP) linked monoclonal antibody (R&D Systems, HAM 1676) for two hours. ELISAs measuring phospho-AKT are incubated with primary serine 473 specific anti-phospho AKT mouse monoclonal antibody (Cell Signaling Technologies, Catalog #5102) for 2 hours, then incubated with Streptavidin-HRP(R&D Systems, Catalog #DY998) for 30 minutes. All ELISAs are visualized with SuperSignal ELISA Pico Chemiluminescent Substrate (Pierce, Catalog #37069) and luminescent signal is measured using a luminometer.

ErbB1 = ErbB1 (Homo sapiens, UniProt P00533); experiment: ErbB signaling computational model: BTC ligand binding parameters; conditions: model parameter
Text: (§3) The ErbB receptor signaling network model consists of three receptors (ErbB1, ErbB2, ErbB3), a receptor phosphatase, phosphatidylinositol 3-kinase (PI3K, which binds the receptors) and components of the PI3K-AKT cascade (phosphatidylinositol bisphosphate, PIP2, phosphoinositide-dependent protein kinase, PDK1, PTEN deleted from chromosome 10, PTEN, serine, threonine protein kinase also known as protein kinase B, AKT, Protein phosphatase 2A, PP2A) (see Table 8 below).
(§4) Included in the model were the ligand-induced dimerization, internalization, recycling, and degradation as described in the literature for all homo- and heterodimers (Hendriks, B. S. et al. (2003) J. Biol. Chem. 278:23343-23351; Wang, Z. et al. (1999) Mol. Biol. Cell 10:1621-1636). Receptor dimer stabilities, using the relative scale as published in Shankaran, H. et al. (2008) Biochem. Biophys. Res. Commun. 371:220-224, were implemented, where the coexpression of […] biases signaling to the cell surface and retards signal downregulation and where the simultaneous coexpression of ErbB1-3 leads to an abundance of ErbB2-ErbB3 heterodimers. Therefore, ErbB3-containing dimers internalize and degrade slower than do ErbB1 homodimers or ErbB1-ErbB2 heterodimers. Constitutive dimerization was also included, although ligand-free dimers were assumed not to trigger any downstream signaling (Yu, X. et al. (2002) Mol. Biol. Cell 13:2547-2557) and to remain at the cell surface. ErbB ligands bind with different affinities to ErbB homo- and heterodimers (Teramura, Y. et al. (2006) EMBO J. 25:4215-4222), but to reduce the number of kinetic parameters to be estimated and to describe the experimental data with the simplest model possible, we constrained the binding affinity of the ligands to ErbB homo- and heterodimers to be the same.
(§5) Many of the reaction rate parameters are unknown in the cell system we studied and therefore had to be estimated (see Table 10 below). To avoid biasing the starting point, all parameters were set to default values (Aldridge, B. B. et al. (2006) Nat. Cell. Biol. 8:1195-1203). The number of parameters estimated was limited by performing the estimation in two stages: first the model was calibrated against the experimentally observed ErbB receptor phosphorylation data; second, the parameters sensitive to AKT phosphorylation were optimized against the experimental data. Estimated values were only accepted if the parameters were constrained under multiple parameter runs using a genetic algorithm with a population size of 50 and 25 generations (Mathworks, MA). […] The normalized sensitivities of each species were integrated over the two hour stimulation, and parameters with normalized, integrated sensitivities greater than an arbitrary threshold of 1000 are listed in Table 11 below. As mentioned above, ErbB4 phosphorylation was not included into the parameter estimation because the cell line studied had barely detectable ErbB4 (see Table 3 below). ErbB4 reactions are parameterized according to ErbB3 reactions.

[2] = system: ErbB3 phosphorylation (pErbB3) in NCI-ADRr cells; experiment: ErbB3 phosphorylation dose response curves for ErbB ligands (ELISA); type: cell-based
Method: as §1, §2

ErbB3 = ErbB3 (Homo sapiens, UniProt P21860); experiment: ErbB signaling computational model: HRG ligand binding parameters; conditions: model parameter
Text: as §3, §4, §5

[3] = system: AKT phosphorylation (pAKT) in NCI-ADRr cells; experiment: AKT phosphorylation dose response curves for ErbB ligands (ELISA); type: cell-based
Method: as §1, §2

[4] = system: ErbB2 phosphorylation (pErbB2) in NCI-ADRr cells; experiment: ErbB2 phosphorylation dose response curves for ErbB ligands (ELISA); type: cell-based
Method: as §1, §2

ErbB2 [5] = target: T2, ErbB2 (Homo sapiens, UniProt P04626); experiment: Lapatinib rate constants from the literature: ErbB2 (Table 13); type: binding
ErbB2 [6] = target: T2, ErbB2; conditions: cited from earlier work
ErbB1 on NCI-ADRr cells = ErbB1 on NCI-ADRr cells (UniProt P00533); experiment: cell-based or functional assay
ErbB3 on NCI-ADRr cells = ErbB3 on NCI-ADRr cells (UniProt P21860); experiment: cell-based or functional assay

BTC: betacellulin, ErbB ligand which binds primarily to ErbB1
EC50 [1]: 0.0057 µM | kf3: BTC binding to E1 (ErbB1): 5.00 × 10^−11 molecules-1 sec-1 | kr3: BTC dissociation from E1 (ErbB1): 0.001 s⁻¹ | kf5: BTC binding to E1 heterodimers (ErbB1; E1 heterodimers): 5.00 × 10^−11 molecules-1 sec-1 | kf4: BTC binding to E1 homodimers (ErbB1; E1 homodimers): 5.00 × 10^−11 molecules-1 sec-1 | kf129: BTC binding in the endosome (ErbB1; endosome): 3.8 molecules-1 sec-1 | EC50 [2]: 0.1 µM

HRG1-β: heregulin, ErbB receptor ligand which binds to ErbB3 and ErbB4
kr1: HRG dissociation from E3 (ErbB3): 0.001 s⁻¹ | kf2: HRG binding to E3:E2 dimers (ErbB3; E3:E2 dimers): 5.00 × 10^−11 molecules-1 sec-1 | kr2: HRG dissociation from E3:E2 dimers (ErbB3; E3:E2 dimers): 0.001 s⁻¹ | kf127: HRG binding in the endosome (ErbB3; endosome): 3.8 molecules-1 sec-1 | kf1: HRG binding to E3 or E4 (ErbB3; unit conversion from 1e5M-1s-1): 5.00 × 10^−11 molecules-1 sec-1 | EC50 [3]: 0.0019 µM | pAKT % stimulation at 5 min relative to maximum [3]: 100.0% | pErbB1 % stimulation at 5 min relative to maximum [1]: 0.0% | EC50 [4]: 0.007 µM | pErbB2 % stimulation at 5 min relative to maximum [4]: 43.0% | EC50 [2]: 0.0099 µM | pErbB3 % stimulation at 5 min relative to maximum [2]: 100.0%

AR: amphiregulin, ErbB1 binding ligand
pAKT % stimulation at 5 min relative to maximum [3]: 28.0% | EC50 [1]: 0.037 µM | pErbB1 % stimulation at 5 min relative to maximum [1]: 95.0% | pErbB2 % stimulation at 5 min relative to maximum [4]: 54.0% | EC50 [2]: 0.38 µM | pErbB3 % stimulation at 5 min relative to maximum [2]: 17.0%

CS(=O)(=O)CCNCc1ccc(-c2ccc3ncnc(Nc4ccc(OCc5cccc(F)c5)c(Cl)c4)c3c2)o1 [lapatinib]
kfLapatinib_4: Lapatinib inhibitor binding to 2-2 dimers (ErbB2 [5]; 2-2 dimers): 3.00E−12 molecules^−1 sec^−1 | kfLapatinib_2: Lapatinib inhibitor binding from ErbB2 or 2-3 dimers (ErbB2 [5]; unit conversion from M^−1s^−1 /(Vmedia * Av/Num_cells)): 1.50E−12 molecules^−1 sec^−1 | Lapatinib inhibitor binding from ErbB2 or 2-3 dimers (on-rate before unit conversion) (ErbB2 [6]): Unit conversion calculated as 2.95e3 M^−1s^−1/ | krLapatinib_2: Lapatinib inhibitor dissociation to ErbB2 or 2-3 dimers (ErbB2 [6]): 3.83e-05 s⁻¹

transforming growth factor alpha (from UniProt P01135 40-89) (ligand)
EC50 [nM] of pErbB1 dose response, NCI-ADRr cells (ErbB1 on NCI-ADRr cells): 30 nM

Epiregulin: epiregulin, ErbB ligand
pAKT % stimulation at 5 min relative to maximum [3]: 11.0% | pErbB1 % stimulation at 5 min relative to maximum [1]: 9.0% | pErbB2 % stimulation at 5 min relative to maximum [4]: 18.0%

heparin-binding epidermal growth factor (from UniProt Q99075 63-148) (ligand)
EC50 [nM] of pErbB1 dose response, NCI-ADRr cells (ErbB1 on NCI-ADRr cells): 21 nM | EC50 [nM] of pErbB2 dose response, NCI-ADRr cells (ErbB1 on NCI-ADRr cells): 230 nM | pAKT, % stimulation at 5 min relative to maximum, NCI-ADRr cells (ErbB1 on NCI-ADRr cells): 20% | pErbB1, % stimulation at 5 min relative to maximum, NCI-ADRr cells (ErbB1 on NCI-ADRr cells): 87% | pErbB2, % stimulation at 5 min relative to maximum, NCI-ADRr cells (ErbB1 on NCI-ADRr cells): 94% | pErbB3, % stimulation at 5 min relative to maximum, NCI-ADRr cells (ErbB1 on NCI-ADRr cells): 32%

HB-EGF: heparin-binding epidermal growth factor, ErbB ligand
pAKT % stimulation at 5 min relative to maximum [3]: 20.0% | EC50 [1]: 0.021 µM | pErbB1 % stimulation at 5 min relative to maximum [1]: 87.0% | EC50 [4]: 0.23 µM | pErbB2 % stimulation at 5 min relative to maximum [4]: 94.0% | pErbB3 % stimulation at 5 min relative to maximum [2]: 32.0%

TGFα: transforming growth factor alpha, ErbB1 binding ligand
EC50 [1]: 0.03 µM

betacellulin (from UniProt P35070 32-111) (ligand)
EC50 [nM] of pErbB1 dose response, NCI-ADRr cells (ErbB1 on NCI-ADRr cells): 5.7 nM | EC50 [nM] of pErbB3 dose response, NCI-ADRr cells (ErbB1 on NCI-ADRr cells): 100 nM

B1: amphiregulin (ligand, UniProt P15514 101-198, looked up)
chain: SVRVEQVVKPPQNKTESENTSDKPKRKKKGGKNGKNRRNRKKKNPCNAEFQNFCIHGECKYIEHLEAVTCKCQQEYFGERCGEKSMKTHSMIDSSLSK
EC50 [nM] of pErbB1 dose response, NCI-ADRr cells (ErbB1 on NCI-ADRr cells): 37 nM | EC50 [nM] of pErbB3 dose response, NCI-ADRr cells (ErbB1 on NCI-ADRr cells): 380 nM | pAKT, % stimulation at 5 min relative to maximum, NCI-ADRr cells (ErbB1 on NCI-ADRr cells): 28% | pErbB1, % stimulation at 5 min relative to maximum, NCI-ADRr cells (ErbB1 on NCI-ADRr cells): 95% | pErbB2, % stimulation at 5 min relative to maximum, NCI-ADRr cells (ErbB1 on NCI-ADRr cells): 54% | pErbB3, % stimulation at 5 min relative to maximum, NCI-ADRr cells (ErbB1 on NCI-ADRr cells): 17%

B2: Epigen (ligand, UniProt Q6UW88 24-104, looked up)
chain: AVTVTPPITAQQGNWTVNKTEADNIEGPIALKFSHLCLEDHNSYCINGACAFHHELEKAICRCFTGYTGERCEHLTLTSYA
pAKT % stimulation at 5 min relative to maximum [3]: 11.0% | pAKT, % stimulation at 5 min relative to maximum, NCI-ADRr cells (ErbB1 on NCI-ADRr cells): 11% | pErbB1, % stimulation at 5 min relative to maximum, NCI-ADRr cells (ErbB1 on NCI-ADRr cells): 12% | pErbB2, % stimulation at 5 min relative to maximum, NCI-ADRr cells (ErbB1 on NCI-ADRr cells): 25% | pErbB3, % stimulation at 5 min relative to maximum, NCI-ADRr cells (ErbB1 on NCI-ADRr cells): 3% | pErbB1 % stimulation at 5 min relative to maximum [1]: 12.0% | pErbB2 % stimulation at 5 min relative to maximum [4]: 25.0% | pErbB3 % stimulation at 5 min relative to maximum [2]: 3.0%

B3: heregulin HRG1-β (ligand, UniProt Q02297-6 177-241, looked up)
chain: SHLVKCAEKEKTFCVNGGECFMVKDLSNPSRYLCKCPNEFTGDRCQNYVMASFYKHLGIEFMEAE
EC50 [nM] of pAKT dose response, NCI-ADRr cells (ErbB3 on NCI-ADRr cells): 1.9 nM | EC50 [nM] of pErbB2 dose response, NCI-ADRr cells (ErbB3 on NCI-ADRr cells): 7 nM | EC50 [nM] of pErbB3 dose response, NCI-ADRr cells (ErbB3 on NCI-ADRr cells): 9.9 nM | pAKT, % stimulation at 5 min relative to maximum, NCI-ADRr cells (ErbB3 on NCI-ADRr cells): 100% | pErbB1, % stimulation at 5 min relative to maximum, NCI-ADRr cells (ErbB3 on NCI-ADRr cells): 0% | pErbB2, % stimulation at 5 min relative to maximum, NCI-ADRr cells (ErbB3 on NCI-ADRr cells): 43% | pErbB3, % stimulation at 5 min relative to maximum, NCI-ADRr cells (ErbB3 on NCI-ADRr cells): 100%
